Assay results as given in patent US20060073148A1.

What was measured:
[1] = molecular target: cynomolgus monkey IL-13 (NHP IL-13), recombinant (cynomolgus monkey); assay: cell-based or functional assay
[2] = molecular target: native human IL-13 (crude preparation from activated human cord blood Th2 cells) (human) (UniProt P35225); assay: cell-based or functional assay
Sequence of native human IL-13 (crude preparation from activated human cord blood Th2 cells) (human) (P35225 other isoform, or with tags, fused parts or gaps, form in doubt): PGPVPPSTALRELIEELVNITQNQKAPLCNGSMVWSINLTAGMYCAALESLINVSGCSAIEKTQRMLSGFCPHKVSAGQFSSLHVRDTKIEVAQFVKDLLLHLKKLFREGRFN

Sequence of cynomolgus monkey IL-13 (NHP IL-13), recombinant (cynomolgus monkey) (Q5I6E4 other isoform, or with tags, fused parts or gaps): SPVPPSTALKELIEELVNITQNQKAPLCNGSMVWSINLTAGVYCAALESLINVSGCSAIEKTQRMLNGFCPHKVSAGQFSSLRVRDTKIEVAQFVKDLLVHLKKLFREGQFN

B1: antibody with the murine heavy chain of MJ2-7 and a humanized light chain (antibody, part only; not given: humanized light chain, V domains shown, part only)
VH: EVQLQQSGAELVKPGASVKLSCTGSGFNIKDTYIHWVKQRPEQGLEWIGRIDPANDNIKYDPKFQGKATITADTSSNTAYLQLNSLTSEDTAVYYCARSEENWYDFFDYWGQGTTLTVSS
[1]
  IC50, CD23 expression assay: 0.308 nM
[2]
  IC50, STAT6 phosphorylation assay: 0.554 nM
